# Experimental data from patent publication US20130109846A1 (published 2013).
# B1: 1h-36 (other)
# VL: DIQMTQSPSSLSASVGDRVTITCRASRDIALDLLWYQQKPGKAPKLLIKGWSGLQSGVPSRFSGSGSGTDFTLTISSLQPEDFATYYCAQGWGRPVTFGQGTKVEIKR
# B2: 1h-80-2 (other)
# VL: DIQMTQSPSSLSASVGDRVTITCRASQRIGSNLAWYQQKPGKAPKLLIYWASLLQSGVPSRFSGSGSETDFTLTISSLQPEDFATYYCQQTRSAPFAFGQGTKVEIKR
# B3: 1h-80-7 (other)
# VL: DIQMTQSPSSLSASVGDRVTITCRASQRIGSNLAWYQQKPGKAPKLLIYWASLLQSGVPSRFSGSGSGSDFTLTISSLQPEDFATYYCQETRSAPFTFGQGTKVEIKR
# B4: 1h-81 (other)
# VL: DIQMTQSPSSLSASVGDRVTITCRASQEIDHGLAWYQQKPGKAPKLLIYWASRLQSGVPSRFSGSGSGTDFTLTISSLQPEDFATYYCQQVVAAPFTFGQGTKVEIKR
# B5: 1h-82 (other)
# VL: DIQMTQSPSSLSASVGDRVTITCRASQDIGLNLLWYQQKPGKAPTLLIYWSSMLQSGVPSRFSGSGSGTDFTLTISSLQPEDFATYYCQQGRMRPFTFGQGTKVEIKR
# B6: 1h-83 (other)
# VL: DIQMTQSPSSLSASVGDRVTITCRASQSIGHSLVWYQQKPGKAPKLLIYWASLLQSGVSSRFSGSGSGTDFTLTISSLQPEDFATYYCQQSRAAPFTFGQGTKVEIKR
# B7: 1h-84 (other)
# VL: DIQMTQSPSSLSASVGDRVTITCRASQSIGKGLMWYQQKPGKAPKLLIYWASMLQSGVPSRFSGSGSGTDFTLTISSLQPEDFATYYCQQSLRTPFTFGQGTEVEIKR
# B8: 1h-85 (other)
# VL: DIQMTQSPSSLSASVGDRVTITCRASQPIGASLLWYQQKPGKAPRLLIYWGSLLQSGVPSRFSGSGSGTDFTLTISSLQPEDLATYYCQQSLRTPFTFGQGTKVEIKR
# B9: 1h-86 (other)
# VL: DIQMTQSPSSLSASVGDRVTITCRASQDIGQSLVWYQQKPGKAPKLLIYWASMLQSGVPSRFSGSGSGTDFTLTISSLQPEDFATYYCQQVMRRPFTFGQGTKVEIKR
# B10: 1h-79 (other)
# VL: DIQMTQSPSSLSASVGDRVTITCRASQPIGHSLAWYQQKPGKAPKLLIYWASTLQSGVPSRFSGSGSGTDFTLTISSLQPEDFATYYCQQMLRTPFTFGQGTKVEIKR
# B11: 1h-87 (other)
# VL: DIQMTQSPSSLSASVGDRVTITCRASQSIGKSLAWYQQKPGKAPKLLIYWVSLLQSGVPSRFSGSGSGTDFTLTISSLQPEDFATYYCQQIVSRPFTFGQGTKVEIKR
# B12: 1h-90 (other)
# VL: DIQMTQSPSSLSASVGDRVTITCRASQTIGHGLVWYQQKPGKAPKLLIYWSSHLQSGVPSRFSGSGSGTDFTLTISSLQPEDFATYYCQQTLRTPFTFGQGTKVEIKR
# B13: 1h-108 (other)
# VL: DIQMTQSPSSLSASVGDRVTITCRASQYIGTALNWYQQKPGKAPKLLIYRRSHLQSGVPSRFSGSGSGTDFTLTISSLQPEDFATYYCQQIALTPYTFGQGTKVEIKR
# B14: 1h-108-5 (other)
# VL: DIQITQSPSSLSASVGDRVTITCRASQYIGTALNWYQQKPGKAPELLIYRGSHLQSGVPSRFSGSGSGTDFTLTISSLQPEDFVTYYCQQIALTPYTFGQGTKVEIKR
# B15: 1h-109 (other)
# VL: DIQMTQSPSSLSASVGDRVTITCRASQDIGASLLWYQQKPGKAPKLLIYFSSMLQSGVPSRFSGSGSGTDFTLTISSLQPEDFATYYCQQSGMRPFTFGQGTKVEIKR
# B16: 1h-110 (other)
# VL: DIQMTQSPSSLSASVGDRVTITCRASRDIGHMLNWYQQKPGKAPKLLIWFGSVLQSGVPSRFSGSGSGTDFTLTISSLQPEDFATYYCVQGRLRPPTFGQGTKVEIKR
# B17: 1h-112 (other)
# VL: DIQMTQSPSSLSASVGDRVTITCRASQHINASLGWYQQKPGKAPRLLIYWASQLQSGVPSRFSGSGSGTDFTLTISSLQPEDFATYYCQQMVRTPFTFGQGTKVEIKR
# B18: 1h-116 (other)
# VL: DIQMTQSPSSLSASVGDRVTITCRASQSIYPFLEWYQQKPGKAPRLLIYFTSRLQSGVPSRFSGSGSGTDFTLTISSLQPEDFATYYCQQNATNPATFGQGTKVEIKR
# B19: 1h-203 (other)
# VL: DIQMTQSPSSLSASVGDRVTITCRASQPIGSVLAWYQQKPGKAPKLLIYFSSILQSGVPSRFSGSGSGTDFTLTISSLQPEDFATYYCQQALRSPFTFGQGTKVEIKR
# B20: 1h-207 (other)
# VL: DIQMTQSPSSLSASVGDRVTITCRASQYIGTSLAWYQQKPGKAPKLLIYHSSGLQSGVPSRFSGSGSGTDFTLTISSLQPEDFATYYCQQTALRPFTFGQGTKVEIKR
# B21: 1h-238 (other)
# VL: DIQMTQSPSSLSASVGDRVTITCRASQHINASLGWYQQKPGKAPKLLIYWASQLQSGVPSRFSGSGSGTDFTLTISSLQPEDFATYYCQQMVRTPFTFGQGTKVEIKR
# B22: 1h-239 (other)
# VL: DIQMTQSPSSLSASVGDRVTITCRASQSIYPFLEWYQQKPGKAPKLLIYFTSRLQSGVPSRFSGSGSGTDFTLTISSLQPEDFATYYCQQNATNPATFGQGTKVEIKR
# B23: 1h-239-804 (other)
# VL: DIQMTQSPSSLSASVGDRVTITCRASQSIYPFLEWYQQKPGKAPKLLIYFTSRLQSGVPSRFSGSGSGTDFTLTISSLQPEDFATYYCLQNVSMPATFSQGTKVEIKR
# B24: 1h-239-807 (other)
# VL: DIQMTQSPSSLSASVGDRVTITCRASRAIWPFLEWYQQKPGKAPKLLIYFTSRLQSGVPSRFSGSGSGTDFTLTISSLQPEDFATYYCLQNVTNPATFSQGTKVEIKR
# B25: 1h-80 (other)
# VL: DIQMTQSPSSLSASVGDRVTITCRASQRIGSNLAWYQQKPGKAPKLLIYWASLLQSGVPSRFSGSGSGTDFTLTISSLQPEDFATYYCQQTRSAPFTFGQGTKVEIKR
# B26: 1h-239-809 (other)
# VL: DIQMTQSPSSLSASVGDRVTITCRASRPIWPFLEWYQQKPGKAPKLLIYFTSRLQSGVPSRFSGSGSGTDFTLTISSLQPEDFATYYCLQNVTNPATFSQGTKVEIKR
# B27: 1h-239-815 (other)
# VL: DIQMTQSPSSLSASVGDRVTITCRASQPIWPFLEWYQQKPGKAPKLLIYFTSRLQSGVPSRFSGSGSGTDFTLTISSLQPEDFATYYCLQNVTNPATFSQGTKVEIKR
# B28: 1h-239-816 (other)
# VL: DIQMTQSPSSLSASVGDRVTITCRASRTIYPFLEWYQQKPGKAPKLLIYFTSRLQSGVPSRFSGSGSGTDFTLTISSLQPEDFATYYCLQNVTNPATFSQGTKVEIKR
# B29: 1h-239-817 (other)
# VL: DIQMTQSPSSLSASVGDRVTITCRASKPIYPFLEWYQQKPGKAPKLLIYFTSRLQSGVPSRFSGSGSGTDFTLTISSLQPEDFATYYCLQNVTNPATFSQGTKVEIKR
# B30: 1h-239-819 (other)
# VL: DIQMTQSPSSLSASVGDRVTITCRASQAIWPFLEWYQQKPGKAPKLLIYFTSRLQSGVPSRFSGSGSGTDFTLTISSLQPEDFATYYCLQNVTNPATFSQGTKVEIKR
# B31: 1h-239-824 (other)
# VL: DIQMTQSPSSLSASVGDRVTITCRASQSIYPFLEWYQQKPGKAPKLLIYFTSRLRQGVPSRFSGSGSGTDFTLTISSLQPEDFATYYCLQNVTNPATFSQGTKVEIKR
# B32: 1h-239-828 (other)
# VL: DIQMTQSPSSLSASVGDRVTITCRASQSIYPFLEWYQQKPGKAPKLLIYFTSRLREGVPSRFSGSGSGTDFTLTISSLQPEDFATYYCLQNVTNPATFSQGTKVEIKR
# B33: 1h-239-829 (other)
# VL: DIQMTQSPSSLSASVGDRVTITCRASQSIYPFLEWYQQKPGKAPKLLIYFSSRLASGVPSRFSGSGSGTDFTLTISSLQPEDFATYYCLQNVTNPATFSQGTKVEIKR
# B34: 1h-239-832 (other)
# VL: DIQMTQSPSSLSASVGDRVTITCRASQSIYPFLEWYQQKPGKAPKLLIYFTSYLREGVPSRFSGSGSGTDFTLTISSLQPEDFATYYCLQNVTNPATFSQGTKVEIKR
# Molecular target: human CD28 (human, UniProt P10747 19-220)
# Assay: cell-based or functional assay
Binder,Luciferase assay (EC50) [nM],MLR assay (EC50) [nM]
B1,570,1800
B2,62,550
B3,322,–
B4,3300,–
B5,1900,–
B6,1300,1700
B7,1500,–
B8,530,–
B9,400,–
B10,3800,3200
B11,1700,–
B12,1000,–
B13,1900,2700
B14,1900,–
B15,1000,–
B16,4100,–
B17,775,850

Binder,Luciferase assay (EC50) [nM],MLR assay (EC50) [nM]
B18,2500,2400
B19,880,–
B20,2600,–
B21,775,–
B22,1300,–
B23,5,3
B24,7,6
B25,685,2000
B26,6,4
B27,10,6
B28,11,13
B29,7,9
B30,13,11
B31,9,6
B32,8,14
B33,10,11
B34,12,11
